Test results from article PMC3717276, “Optimization and validation of mitochondria-based functional assay as a useful tool to identify BH3-like molecules selectively targeting anti-apoptotic Bcl-2 proteins” (BMC Biotechnology, 2013).
Ends that are not written are not given here. * marks the point of attachment. 6FAM = O=C1OC2(c3ccc(O)cc3Oc3cc(O)ccc32)c2cc(C(=O)*)ccc21

B1: Human Mcl-1 protein, residues 171-327, N-terminal 8xHis tag (domain or fragment, UniProt Q07820-1 171-327, looked up)
chain: EDELYRQSLEIISRYLREQATGAKDTKPMGRSGATSRKALETLRRVGDGVQRNHETAFQGMLRKLDIKNEDDVKSLSRVMIHVFSDGVTNWGRIVTLISFGAFVAKHLKTINQESCIEPLAESITDVLVRTKRDWLVKQRGWDGFVEFFHVEDLEGG
notes: human Mcl-1 fragment (NM_021960), residues 171-327; Cloned into the pHis-TEV vector; source: E. coli BL21(DE3), purified (Ni-NTA, Source Q15)

How the values were obtained:
Details in all cases: both partners purified
[1] = target: T1, Human Bcl-xL protein with internal deletion of 45-85 and C-terminal truncation of 212-233, N-terminal 8xHis … (human, UniProt Q07817-1 1-211, internal deletion of 45–85); experiment: fluorescence polarisation; competition: 30 nM Bcl-xL and 2.5 nM FAM-Bak, tested BH3 peptide added; 50 mM Tris-Bis, pH 7.4, 0.01% bovine gamma globulin; Ki calculated from IC50
T1 construct: human Bcl-xL (NM_138578), internal deletion of residues 45-85 and C-terminal truncation of 212-233; Cloned into the pHis-TEV vector (a modified pET vector); source: E. coli BL21(DE3), purified (Ni-NTA, Superdex75)

[2] = target: T1, Human Bcl-xL protein with internal …; experiment: SPR; competitive solution binding: protein (20 nM) pre-incubated with tested BH3 peptide for at least 30 min, injected over immobilised biotin-Bim BH3 peptide; response at 30 s of dissociation
[3] = target: B1; experiment: as above
[4] = target: B1; experiment: fluorescence polarisation; competition: Mcl-1 (20 nM) or Bcl-2 (40 nM) pre-incubated with FAM-Bid (2 nM and 2.5 nM), tested BH3 peptide added, 2-3 h; 100 mM potassium phosphate, pH 7.5, 100 ug/ml bovine gamma globulin, 0.02% sodium azide; Ki calculated from IC50
[5] = target: B1; experiment: fluorescence polarisation; saturation experiments with FAM-Bid and Mcl-1 or Bcl-2 protein; assay buffer 100 mM potassium phosphate, pH 7.5, 100 ug/ml bovine gamma globulin, 0.02% sodium azide
[6] = target: T2, Biotin-labeled Bim BH3 peptide (residues 81-106) (biotin label, position not stated); experiment: SPR; biotin-labeled Bim BH3 peptide immobilised on a streptavidin SA chip; proteins injected at different concentrations in HBS-EP (10 mM HEPES pH 7.4, 150 mM NaCl, 3 mM EDTA, 0.005% P20)
T2 construct: Bim BH3 peptide, residues 81-106 of Swiss-Prot O43521; also called immobilized Bim BH3 peptide; Bim peptide
T2 sequence (peptide, as listed by the source): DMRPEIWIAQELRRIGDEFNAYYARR

T1 sequence (Q07817 other isoform, or with tags, fused parts or gaps internal deletion of 45–85 | internal deletion of 45–85): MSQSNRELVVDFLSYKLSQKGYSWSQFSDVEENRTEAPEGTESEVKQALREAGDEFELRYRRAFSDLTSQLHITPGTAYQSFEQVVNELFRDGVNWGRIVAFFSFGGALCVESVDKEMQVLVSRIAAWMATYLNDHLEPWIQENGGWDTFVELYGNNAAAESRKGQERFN

| Binder | Ki [1] | IC50 [2] | IC50 [3] | Ki [4] | Kd [5] | Kd [6] |
| --- | --- | --- | --- | --- | --- | --- |
| PAELEVECATQLRRFGDKLNFRQKLL (Noxa BH3 peptide, residues 18-43 of Swiss-Prot Q13794; source: provided by Dr. Peter P Roller (National Cancer Institute)) [Noxa BH3 peptide (residues 18-43)] | > 10000 nM | > 30000 nM | 51 nM | 97 nM | – | – |
| QEDIIRNIARHLAQVGDSMDR (Bid BH3 peptide, residues 79-99 of Swiss-Prot P55957; also called unlabeled Bid BH3 peptide; source: provided by Dr. Peter P Roller (National Cancer Institute)) [Bid BH3 peptide (residues 79-99)] | – | – | 60.1 nM | 6 nM | – | – |
| 6FAM-QEDIIRNIARHLAQVGDSMDR (Bid BH3 peptide, residues 79-99 of Swiss-Prot P55957; also called Flu-Bid; source: synthetic peptide) | – | – | – | – | 2.8 nM | – |
| B1 | – | – | – | – | – | 0.2 nM |
| NLWAAQRYGRELRRMSDEFVDSFKKG (Bad BH3 peptide, residues 103-128 of GenBank CAG46757; source: provided by Dr. Peter P Roller (National Cancer Institute)) [Bad BH3 peptide (residues 103-128)] | 3.2 nM | 8.64 nM | > 30000 nM | > 20000 nM | – | – |
